What was measured:
[1] = tested on: Panc 02 plus EndoMT cell grafts; experiment: Prophylactic efficacy in desmoplastic mouse PDAC transplant model; assay type: in vivo; settings: 5 mg/kg IV, 8 doses at 3-day intervals from Day-4
Method: (§1) Mouse experiments were performed with the permission of the Institutional Animal Care and Use Committee of National Health Research Institutes (NHRI-IACUC-106031-A, 109022-M2-S02, and 109196-A). To establish a desmoplastic tumor transplant model, C57BL/6 mice at 12 weeks of age were subcutaneously inoculated with a mix of Panc 02 cells and EndoMT-derived CAFs (i.e. OPN-treated 3B-11 cells). See Fan C S, Chen L L, Hsu T A, et al. Endothelial-mesenchymal transition harnesses HSP90α-secreting M2-macrophages to exacerbate pancreatic ductal adenocarcinoma. J Hematol Oncol 2019;12:138; and Chua K V, Fan C S, Chen L L, Chen C C, Hsieh S C, Huang T S. Octyl gallate induces pancreatic ductal adenocarcinoma cell apoptosis and suppresses endothelial-mesenchymal transition-promoted M2-macrophages, HSP90α secretion, and tumor growth. Cells 2020;9(1):91. Sizes of developing tumors were superficially measured with a Vernier caliper, and tumor volumes were calculated with the formula ½×length×width^2. Real tumors were weighed when mice were sacrificed. To establish a desmoplastic tumor transplant model in humanized mice, NOD-SCID IL2R^null (ASID) mice transplanted with human hematopoietic stem cells (hHSC) were subcutaneously inoculated with a mix of PANC-1 cells and OPN-treated HUVECs. The employed hHSC-transplanted ASID mice were produced from the National Laboratory Animal Center (Taipei, Taiwan) and all contained human CD45^+ cell levels more than 38% of total lymphocytes. To establish an M2-macrophage-exacerbated mouse PDAC model, C57BL/6 mice were subcutaneously inoculated with a mix of Panc 02 cells and rHSP90α-treated BMDMs. Additionally, LSL-KrasG12D/Pdx1-Cre transgenic mice were adopted as a spontaneously PDAC-developing mouse model to evaluate the therapeutic efficacy of HH01 antibody. LSL-KrasG12D and Pdx1-Cre breeder mice were obtained from the Mouse Models of Human Cancers Consortium Repository of the National Cancer Institute (Frederick, Maryland, USA). LSL-KrasG12D mice were crossed with Pdx1-Cre mice to generate LSL-KrasG12D/Pdx1-Cre mice.
(§2) For assaying the HSP90α-binding activities of the prepared antibodies, 96-well plates were coated with 12.5 ng/ml of rHSP90α in the capture buffer (BioLegend, San Diego, CA, USA) by overnight incubation at 4° C. The coated plates were washed twice with PBST and then blocked with PBST plus 3% bovine serum albumin (BSA). […] The reactions were stopped by the addition of 0.5 M H2SO4, and OD450 values were measured by an Infinite M200 microplate reader (TECAN, Männedorf, Switzerland). Additionally, the immunoglobulin (IgG) isotype characterization of anti-HSP90α antibodies was performed by using the Mouse Ig Isotyping ELISA Ready-Set-Go!™ Kit (eBioscience™, Thermo Fisher Scientific, Waltham, MA, USA). […]

[2] = tested on: Panc 02 plus EndoMT cell grafts; experiment: Therapeutic efficacy in desmoplastic mouse PDAC transplant model; assay type: in vivo; settings: 5 mg/kg IV, 3 times at 7-day intervals from Day-20
Method: as §1, §2

[3] = Pharmacokinetic assay in male mice; settings: IV single dose 10 mg/kg
Text: Food and water were available ad libitum at all times. For determination of the serum exposure levels of HH01 antibody, blood samples were collected at Day-0.04, 0.08, 0.25, 1, 2, 3, 7, 9, 14, 16, 18, 21, 23, 25, 35, 42, 49, 56, and 63 post administration.

[4] = tested on: SW620, PANC-1, and Panc 02 cells; experiment: Cell spheroid-forming assay, rHSP90α-induced gain-of-stemness; assay type: cell-based, human and mouse; settings: conclusion statement
Method: One thousand cancer cells were seeded onto each well of 24-well plates pre-coated with a 4-mm thick layer of 0.5% agarose. After incubation 24 h with serum-free medium at 37° C. plus a 5% CO2 humidified atmosphere, cells were added with PBS or 15 μg/ml of rHSP90α in the absence or presence of 10 μg/ml of control IgG or the tested anti-HSP90α antibody. The incubation was kept for 10-14 days with supplements of some fresh serum-free medium every 3 days. Finally, the cell spheroids characterized by tight, non-adherent, and >100 μm in diameter were photographed and counted under an Olympus IX 71 inverted microscope (Center Valley, PA, USA). The spheroid formation % was calculated by the formula: (number of cell spheroids/1000)×100%.

[5] = tested on: K-Ras^G12D-induced PDAC in LSL-KrasG12D/Pdx1-Cre mice; experiment: Therapeutic efficacy in K-Ras^G12D-induced desmoplastic mouse PDAC model; assay type: in vivo
Method: as §1
For assaying the HSP90α-binding activities of the prepared antibodies, 96-well plates were coated with 12.5 ng/ml of rHSP90α in the capture buffer (BioLegend, San Diego, CA, USA) by overnight incubation at 4° C. The coated plates were washed twice with PBST and then blocked with PBST plus 3% bovine serum albumin (BSA). The prepared antibodies were applied and incubated 2 h at room temperature. After three washes with PBST, horseradish peroxidase-conjugated secondary antibody was added and incubated at 37° C. for another 1 h. After three washes, 0.3 mg/ml of 3,3′,5,5′-tetramethylbenzidine in 0.015% H2O2 was added into each well and incubated in the dark at room temperature for 10 min. The reactions were stopped by the addition of 0.5 M H2SO4, and OD450 values were measured by an Infinite M200 microplate reader (TECAN, Männedorf, Switzerland). Additionally, the immunoglobulin (IgG) isotype characterization of anti-HSP90α antibodies was performed by using the Mouse Ig Isotyping ELISA Ready-Set-Go!™ Kit (eBioscience™, Thermo Fisher Scientific, Waltham, MA, USA). The ELISA protocol was also used to assay the secreted HSP90α levels of mouse serum samples as described previously. See Chen J S, Hsu Y M, Chen C C, Chen L L, Lee C C, Huang T S. Secreted heat shock protein 90α induces colorectal cancer cell invasion through CD91/LRP-1 and NF-κB-mediated integrin αV expression. J Biol Chem 2010;285(33):25458-66.
Mouse paraffin-embedded tissue sections were deparaffinized by xylene and rehydrated by a series of ethanol dilutions. Masson trichrome staining was performed using a Trichrome Stain Kit (ScyTek Laboratories Inc., Utah, USA) according to the manufacturer's protocol. The stained sections were dehydrated in graded ethanol solutions and xylene, and finally mounted with mounting solution overnight in the dark at room temperature. […]

SW620 and PANC-1 cells = experiment: Transwell invasion assay, rHSP90α-induced cancer cell invasion; assay type: cell-based, human; settings: conclusion statement
Method: In a 37° C. and 5% CO2 humidified incubator, cancer cells were subjected to serum starvation in 0.5% FBS-containing medium for 16 h, and then added with PBS or 15 μg/ml of rHSP90α in the absence or presence of 10 μg/ml of control IgG or the tested anti-HSP90α antibody. After another 24 h, the treated cells were harvested as aliquots (1×10^5 cells per aliquot) in 0.5% FBS-containing culture medium, and then each aliquot was seeded into a top chamber of Transwell inserts pre-coated with 5-fold diluted Matrigel (BD Biosciences). Cells were allowed 16 h to invade through the Matrigel toward the bottom chambers containing culture medium plus 10% FBS. The filters of the Transwell inserts were then fixed and stained with Giemsa. Invasive cells on the lower side of filters were photographed using the Axiovert S100/AxioCam HR microscope system (Carl Zeiss, Oberkochen, Germany) and further quantified by the Image-Pro Plus software (Media Cybernetics, Inc., Silver Spring, MD, USA).

B1: HH01: humanized anti-HSP90α IgG1 antibody, mutant of Clone-2-chimera; VH SEQ ID NO: 12, VL SEQ ID NO: 17 (antibody, V domains shown)
VH: EVQLVESGGGLVQPGGSLRLSCAASGFTFKTYAMNWVRQAPGQGLEWVARIRSKSRNYATYYADSVKDRFTISRDDSKNQFYLQMNNLRTEDTAVYYCVVGGSGFDYWGQGTTLTVSS
VL: DVVMTQTPLSLPVSLGDQASISCRSSQSIVHSNGNTYLEWYLQKPGQSPQLLIYKVSNRFSGVPDRFSGSGSGTDFTLTISSVEAEDLGVYYCFQGSHVPWTFGGGTKLEIK
modifications: Heavy chain variable region; Light chain variable region
**Q.** With B1 as the molecule, how does the “kinetics of the tumor growth” value [1] read?
**A.** Its value is “potently suppressed”.

**Q.** And the “serum HSP90α levels” value [1]?
**A.** The value was “significantly reduced”.

**Q.** What about the “tumor desmoplasia (Masson trichrome)” value [1] of the same molecule?
**A.** The value was “significantly prevented”.

**Q.** What about the “tumor sizes (weights) on Day-30” value [1] of the same molecule?
**A.** The value was “significantly repressed”.

**Q.** What about the “serum HSP90α levels” value [2] of the same molecule?
**A.** Its value is “significant decreases”.

**Q.** What about the tumor desmoplasia [2] of the same molecule?
**A.** The tumor desmoplasia was “significant decreases”.

**Q.** And the “tumor growth by weight on Day-41” value [2]?
**A.** The value was “indeed repressed”.

**Q.** What about the tumor growth kinetics [2] of the same molecule?
**A.** Its tumor growth kinetics is “totally suppressed”.

**Q.** What about the clearance rate [3] of the same molecule?
**A.** Its clearance rate is 4.3 mL/day/kg.

**Q.** What about the “volume in steady state” value [3] of the same molecule?
**A.** The value was 80 mL/kg.

**Q.** What about the “spheroid-forming activities of pancreatic adenocarcinoma and colorectal cancer cell lines” value [4] of the same molecule?
**A.** Its value is “potently suppresses”.

**Q.** And the “mice still surviving on Day-450” value ([5]; 5 mg/kg IV, 10-dose schedule from 6 months of age)?
**A.** The value was 7 of 9.

**Q.** And the median survival time ([5]; 5 mg/kg IV, 10-dose schedule, Kaplan-Meier, end point Day-450)?
**A.** The median survival time was > 450 days.

**Q.** And the liver desmoplasia ([5]; Masson trichrome staining)?
**A.** The liver desmoplasia was “significant improvement”.

**Q.** What about the “elevation of serum HSP90α levels” value ([5]; after vs. before treatments) of the same molecule?
**A.** Its value is “effectively abolished”.

**Q.** What about the pancreatic desmoplasia ([5]; mice still surviving on Day-450) of the same molecule?
**A.** Its pancreatic desmoplasia is “drastically recovered”.

**Q.** And the “tumor nodules on livers” value ([5]; one mouse per group)?
**A.** The value was “fewer nodules than IgG-treated mouse”.

**Q.** What about the “invasive activities of pancreatic adenocarcinoma and colorectal cancer cell lines” value (SW620 and PANC-1 cells) of the same molecule?
**A.** Its value is “potently suppresses”.

— US20250333486A1, “Anti-HSP90 alpha antibody and uses thereof” (NATIONAL HEALTH RESEARCH INSTITUTES, priority 2021, published 2025)
